Source: patent US20100129369A1 (Eli Lilly, published 2010)
Numbering of substitutions follows the chain as printed. In names and notes the source's numbering stands.

B1: D11-S17Y (antibody, human IgG2, kappa, V domains shown)
VH: QVQLVQSGAEVKKPGSSVKVSCKASGYTFTSRYIHWVRQAPGQGLEWMGWIYPVTGDTYYNEKFKGRVTITADKSTSTAYMELSSLRSEDTAVYYCARGYGAFYYWGQGTLVTVSS
VL: EIVLTQSPGTLSLSPGERATLSCSVSSSISSTNLHWYQQKPGQAPRLLIYGTSYLASGIPDRFSGSGSGTDFTLTISRLEPEDFAVYYCQQWSSYPYSFGQGTKLEIKR
notes: Human engineered IgG2 kappa c-Met antibody; also called D11-S17Y IgG2
B2: D11-8B8 (antibody, human IgG2, kappa, V domains shown)
VH: B1 VH with N61I, Y104F
VL: B1 VL
notes: Human engineered IgG2 kappa c-Met antibody; also called Mab D11-8B8; D11-8B8 IgG2
B3: D11-C27G3 (antibody, human IgG2, kappa, V domains shown)
VH: B1 VH with N61R, K63P
VL: B1 VL with Y54R, A56R
notes: Human engineered IgG2 kappa c-Met antibody; also called D11-27G3; D11-C27G3 IgG2
B4: C8-H241 (antibody, human IgG2, kappa, V domains shown)
VH: QVQLVQSGAEVKKPGASVKVSCKASGYTFTDYYMHWVRQAPGQGLEWMGRVNPNRRGTTYNQKFEGRVTMTTDTSTSTAYMELRSLRSDDTAVYYCARANWLDYWGQGTTVTVSS
VL: DIQMTQSPSSLSASVGDRVTITCSVSSSVSSIYLHWYQQKPGKAPKLLIYSTSNLASGVPSRFSGSGSGTDFTLTISSLQPEDFATYYCQVYSGYPLTFGGGTKVEIKR
notes: Named IgG4 kappa; also called Mab C8-H241
B5: C8-6 (antibody, human IgG2, kappa, V domains shown)
VH: B4 VH with R56G, A99T
VL: B4 VL with Q90I, V91Q
notes: Named IgG4 kappa; also called C8-6 IgG4

Target: T1, human c-Met ECD-Fc-Flis (human)
T1 construct: c-Met ECD fused to Fc with flag- and His-tag at the C-terminus; also called human c-Met extracellular domain (ECD)-Fc-Flis fusion; human c-Met-Flis-Fc ECD
Assay: HGF-blocking ELISA: HGF signal on coated c-Met ECD-Fc-Flis; Ab 7812.50 ng/mL
Method: (§1) Wells of 96-well EIA/RIA high binding plates (Costar, #2592) are coated with 100 μL of human c-Met ECD-Fc-Flis (SEQ ID NO:72) (2 μg/mL) in Dulbecco's phosphate buffered saline (DPBS) overnight at room temperature; washed four times with wash buffer (Tris-buffered saline, pH 8.0, with 0.05% (v/v) polysorbate 20 (TWEEN®-20) (TBS-T) (BioFX Labs, # WSHW-1000-01) in a plate washer; blocked by adding 300 μL of blocking buffer (TBS-T plus 1% (w/v) bovine serum albumin (BSA) (Jackson Immuno, #001-000-162); and incubating for 60 min. at 37° C. Blocking buffer is then removed from the wells and 50 μL of antibodies in blocking buffer at final concentrations as indicated in Table 7 are added into each well, respectively. […] The plates with c-Met antibodies are incubated for 90 min. at 37° C. […] The wells are then washed four times with TBS-T in a plate washer. […] The plates are incubated for 90 min. at room temperature. The wells are again washed four times with TBS-T in a plate washer. 100 μL of a 1:200 dilution of streptavidin-horseradish peroxidase (HRP) (R&D Systems, DY998) in blocking buffer are added to each well. The plates are incubated for 30 min. at room temperature. The wells are washed four times with TBS-T in a plate washer. 100 μL/well of substrate solution (BioFx, #TMBW-1000-01) are then added, and the plates are incubated for 10 min. at room temperature. To stop the reaction, 100 μL/well of stop solution (BioFx, # LSTP-1000-01) are added. The samples are read at a wavelength of 450-570 nm on a microplate reader (Spectra, MAX 190) and no background is subtracted.

T1 sequence (chain, as listed by the source): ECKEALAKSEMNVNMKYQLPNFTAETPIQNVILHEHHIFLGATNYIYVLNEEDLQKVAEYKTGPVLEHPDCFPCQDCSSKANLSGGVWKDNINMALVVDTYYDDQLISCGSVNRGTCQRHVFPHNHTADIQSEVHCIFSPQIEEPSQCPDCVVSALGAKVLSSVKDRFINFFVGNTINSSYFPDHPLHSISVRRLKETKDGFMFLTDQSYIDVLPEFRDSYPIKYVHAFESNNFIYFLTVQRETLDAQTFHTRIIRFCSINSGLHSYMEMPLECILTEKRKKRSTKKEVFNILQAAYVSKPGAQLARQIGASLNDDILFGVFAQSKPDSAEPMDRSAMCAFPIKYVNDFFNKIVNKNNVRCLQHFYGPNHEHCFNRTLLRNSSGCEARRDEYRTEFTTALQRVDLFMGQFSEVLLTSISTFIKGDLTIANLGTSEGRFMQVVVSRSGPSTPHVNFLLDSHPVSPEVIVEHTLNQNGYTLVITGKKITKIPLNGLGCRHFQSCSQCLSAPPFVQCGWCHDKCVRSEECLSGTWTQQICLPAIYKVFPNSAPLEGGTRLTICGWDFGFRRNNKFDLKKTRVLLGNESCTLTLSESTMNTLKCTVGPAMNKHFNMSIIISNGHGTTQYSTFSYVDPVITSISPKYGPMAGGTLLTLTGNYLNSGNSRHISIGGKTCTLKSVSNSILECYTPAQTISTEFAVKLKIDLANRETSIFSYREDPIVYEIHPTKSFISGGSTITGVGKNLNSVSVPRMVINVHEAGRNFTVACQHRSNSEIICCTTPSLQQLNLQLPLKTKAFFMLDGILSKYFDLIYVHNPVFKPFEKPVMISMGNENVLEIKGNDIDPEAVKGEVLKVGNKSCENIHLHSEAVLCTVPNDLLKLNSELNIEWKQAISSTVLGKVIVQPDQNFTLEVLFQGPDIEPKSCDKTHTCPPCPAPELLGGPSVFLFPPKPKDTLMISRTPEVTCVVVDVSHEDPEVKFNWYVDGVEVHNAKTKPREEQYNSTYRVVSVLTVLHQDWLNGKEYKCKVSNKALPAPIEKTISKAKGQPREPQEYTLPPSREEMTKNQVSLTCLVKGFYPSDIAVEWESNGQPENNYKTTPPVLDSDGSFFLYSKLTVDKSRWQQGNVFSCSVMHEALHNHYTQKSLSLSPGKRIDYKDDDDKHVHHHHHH

Row | Binder | AVG A450 nm [A450 nm]
1 | B1 | 1.12
2 | B2 | 1.24
3 | B3 | 0.91
4 | B4 | 0.7
5 | B5 | 0.95

Target: T1, human c-Met ECD-Fc-Flis
Assay: HGF-blocking ELISA: HGF signal on coated c-Met ECD-Fc-Flis; Ab 122.07 ng/mL
Method: as §1

Row | Binder | AVG A450 nm [A450 nm]
6 | B1 | 1.69
7 | B2 | 1.92
8 | B3 | 1.6
9 | B4 | 1.77
10 | B5 | 2

Target: T1, human c-Met ECD-Fc-Flis
Assay: HGF-blocking ELISA: HGF signal on coated c-Met ECD-Fc-Flis; Ab 7.63 ng/mL
Method: as §1

Row | Binder | AVG A450 nm [A450 nm]
11 | B1 | 2.08
12 | B2 | 2.41
13 | B3 | 2.27
14 | B4 | 2.53
15 | B5 | 2.64

Target: T1, human c-Met ECD-Fc-Flis
Assay: HGF-blocking ELISA: HGF signal on coated c-Met ECD-Fc-Flis; Ab 30.52 ng/mL
Method: as §1

Row | Binder | AVG A450 nm [A450 nm]
16 | B1 | 2.07
17 | B2 | 2.32
18 | B3 | 2.38
19 | B4 | 2.42
20 | B5 | 2.42

Target: T1, human c-Met ECD-Fc-Flis
Assay: HGF-blocking ELISA: HGF signal on coated c-Met ECD-Fc-Flis; Ab 0.00 ng/mL (HGF only)
Method: as §1

Row | Binder | AVG A450 nm [A450 nm]
21 | B1 | 2.43
22 | B2 | 2.43
23 | B3 | 2.43
24 | B4 | 2.61
25 | B5 | 2.61

Target: T1, human c-Met ECD-Fc-Flis
Assay: HGF-blocking ELISA: HGF signal on coated c-Met ECD-Fc-Flis; Ab 488.28 ng/mL
Method: as §1

Row | Binder | AVG A450 nm [A450 nm]
26 | B1 | 1.29
27 | B2 | 1.3
28 | B3 | 0.94
29 | B4 | 0.73
30 | B5 | 1.33

Target: T1, human c-Met ECD-Fc-Flis
Assay: HGF-blocking ELISA: HGF signal on coated c-Met ECD-Fc-Flis; Ab 31250.00 ng/mL
Method: as §1

Row | Binder | AVG A450 nm [A450 nm]
31 | B1 | 1.17
32 | B2 | 1.31
33 | B3 | 0.94
34 | B5 | 0.98

Target: T2, human c-Met (human, UniProt P08581 25-1390)
Assay: cell-based or functional assay

T2 sequence (P08581 25-1390): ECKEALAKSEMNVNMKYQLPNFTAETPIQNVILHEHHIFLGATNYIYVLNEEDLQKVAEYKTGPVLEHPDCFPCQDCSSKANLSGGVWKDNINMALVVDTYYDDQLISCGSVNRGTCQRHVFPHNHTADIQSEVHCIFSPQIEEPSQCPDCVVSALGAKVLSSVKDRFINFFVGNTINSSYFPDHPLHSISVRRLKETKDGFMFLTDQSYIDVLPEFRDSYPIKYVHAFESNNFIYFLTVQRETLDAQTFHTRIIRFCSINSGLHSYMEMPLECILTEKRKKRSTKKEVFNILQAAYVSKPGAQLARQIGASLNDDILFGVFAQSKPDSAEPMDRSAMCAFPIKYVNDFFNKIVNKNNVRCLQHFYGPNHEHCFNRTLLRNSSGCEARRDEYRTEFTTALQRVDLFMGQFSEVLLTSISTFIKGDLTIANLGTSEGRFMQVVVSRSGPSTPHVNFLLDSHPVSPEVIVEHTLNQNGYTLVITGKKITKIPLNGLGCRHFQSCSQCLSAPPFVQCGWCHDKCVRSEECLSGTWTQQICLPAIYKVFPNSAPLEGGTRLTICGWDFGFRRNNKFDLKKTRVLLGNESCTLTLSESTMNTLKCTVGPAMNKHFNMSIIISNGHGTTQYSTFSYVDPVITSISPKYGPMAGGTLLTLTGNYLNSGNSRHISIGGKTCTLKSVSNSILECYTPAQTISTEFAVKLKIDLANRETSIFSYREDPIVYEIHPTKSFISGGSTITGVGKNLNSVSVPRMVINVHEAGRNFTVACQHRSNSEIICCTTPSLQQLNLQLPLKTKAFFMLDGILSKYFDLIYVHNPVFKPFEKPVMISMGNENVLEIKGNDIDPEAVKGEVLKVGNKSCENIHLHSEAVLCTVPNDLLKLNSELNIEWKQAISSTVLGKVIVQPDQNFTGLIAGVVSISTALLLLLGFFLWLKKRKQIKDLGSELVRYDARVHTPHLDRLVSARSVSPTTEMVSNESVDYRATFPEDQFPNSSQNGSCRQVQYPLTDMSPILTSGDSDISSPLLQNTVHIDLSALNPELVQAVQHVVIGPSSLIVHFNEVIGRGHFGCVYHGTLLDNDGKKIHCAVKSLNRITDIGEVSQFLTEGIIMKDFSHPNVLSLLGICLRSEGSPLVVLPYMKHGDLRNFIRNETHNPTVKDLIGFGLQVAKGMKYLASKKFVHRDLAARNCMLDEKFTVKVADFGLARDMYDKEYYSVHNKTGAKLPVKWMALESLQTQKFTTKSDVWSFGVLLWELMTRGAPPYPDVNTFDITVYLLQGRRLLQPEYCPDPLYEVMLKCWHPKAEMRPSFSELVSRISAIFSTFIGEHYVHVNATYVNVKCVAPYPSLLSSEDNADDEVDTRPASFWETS

Row | Binder | % inhibition of HGF stimulated phospho-Met (ELISA, HCT116 cells), Ab 0.0032 µg/mL [%] | % inhibition of HGF stimulated phospho-Met (ELISA, HCT116 cells), Ab 0.016 µg/mL [%] | % inhibition of HGF stimulated phospho-Met (ELISA, HCT116 cells), Ab 0.08 µg/mL [%] | % inhibition of HGF stimulated phospho-Met (ELISA, HCT116 cells), Ab 0.4 µg/mL [%] | % inhibition of HGF stimulated phospho-Met (ELISA, HCT116 cells), Ab 2 µg/mL [%] | % inhibition of HGF stimulated phospho-Met (ELISA, HCT116 cells), Ab 10 µg/mL [%]
35 | B1 | 9.48 | 2.53 | -3.24 | 15.9 | 31.4 | 16.7
36 | B2 | -10.4 | -6.68 | 10.5 | 35 | 40.7 | 19.6
37 | B3 | 9.72 | 5.73 | 20.8 | 38.1 | 31.8 | 1.25
38 | B5 | -11.3 | -6.06 | 7.79 | 16.8 | 27.9 | 14.9

Target: T2, human c-Met
Assay: cell-based or functional assay
Remark: another data set of the same source

Row | Binder | Mean Fluorescence (c-Met left on the surface of MKN45 cells, FACS), Ab 5.00 ug/mL
39 | B1 | 56.4
40 | B2 | 44.7
41 | B3 | 51.1
42 | B5 | 67.9

Target: T1, human c-Met ECD-Fc-Flis
Assay: HGF-blocking ELISA: HGF signal on coated c-Met ECD-Fc-Flis; Ab 1953.13 ng/mL
Method: as §1

Row | Binder | AVG A450 nm [A450 nm]
43 | B1 | 1.23
44 | B2 | 1.43
45 | B3 | 0.97
46 | B4 | 0.68
47 | B5 | 1.08

Target: T1, human c-Met ECD-Fc-Flis
Assay: HGF-blocking ELISA: HGF signal on coated c-Met ECD-Fc-Flis; Ab 1.91 ng/mL
Method: as §1

Row | Binder | AVG A450 nm [A450 nm]
48 | B1 | 1.98
49 | B2 | 2.48
50 | B3 | 2.31
51 | B4 | 2.46
52 | B5 | 2.59

Target: T1, human c-Met ECD-Fc-Flis
Assay: HGF-blocking ELISA: HGF signal on coated c-Met ECD-Fc-Flis; Ab 0.48 ng/mL
Method: as §1

Row | Binder | AVG A450 nm [A450 nm]
53 | B1 | 2.15
54 | B2 | 2.51
55 | B3 | 2.37
56 | B4 | 2.45
57 | B5 | 2.56

Target: T2, human c-Met
Assay: cell-based or functional assay
Remark: another data set of the same source

Row | Binder | AVG CPM, 3H-thymidine incorporation in MKN45 cells, Ab 0.0 ng/mL (no antibody) [CPM] | AVG CPM, 3H-thymidine incorporation in MKN45 cells, Ab 0.1 ng/mL [CPM] | AVG CPM, 3H-thymidine incorporation in MKN45 cells, Ab 0.4 ng/mL [CPM] | AVG CPM, 3H-thymidine incorporation in MKN45 cells, Ab 2.6 ng/mL [CPM] | AVG CPM, 3H-thymidine incorporation in MKN45 cells, Ab 15.4 ng/mL [CPM] | AVG CPM, 3H-thymidine incorporation in MKN45 cells, Ab 92.6 ng/mL [CPM] | AVG CPM, 3H-thymidine incorporation in MKN45 cells, Ab 555.6 ng/mL [CPM] | AVG CPM, 3H-thymidine incorporation in MKN45 cells, Ab 3333.3 ng/mL [CPM] | AVG CPM, 3H-thymidine incorporation in MKN45 cells, Ab 20000.0 ng/mL [CPM]
58 | B1 | 44200 | 44600 | 45300 | 49900 | 39700 | 21900 | 20900 | 21200 | 19800
59 | B2 | 50400 | 41600 | 43300 | 44700 | 24400 | 11100 | 11900 | 11400 | 11200
60 | B3 | 44200 | 41500 | 44000 | 47000 | 28700 | 14600 | 16000 | 16900 | 18400
61 | B5 | 48700 | 51700 | 53400 | 54600 | 44800 | 23000 | 18300 | 18200 | 16400

Target: T1, human c-Met ECD-Fc-Flis
Assay: HGF-blocking ELISA: HGF signal on coated c-Met ECD-Fc-Flis; Ab 125000.00 ng/mL
Method: as §1

Row | Binder | AVG A450 nm [A450 nm]
62 | B1 | 1.35
63 | B2 | 1.38
64 | B3 | 0.89
65 | B4 | 0.69
66 | B5 | 1.32
